The supplement of paper PMC11246515
± gives the standard deviation of the averaged measurements.

Assay: total protein half-life in vivo (active degradation + dilution); higher = more stable protein
[1] = E. coli NCM3722 delta-clpP delta-lon delta-hslV, growth: N-lim chemostat, doubling time 6 h
[2] = E. coli NCM3722 delta-clpP, growth: N-lim chemostat, doubling time 6 h
[3] = E. coli NCM3722 delta-hslV, growth: N-lim chemostat, doubling time 6 h
[4] = E. coli NCM3722 delta-lon, growth: N-lim chemostat, doubling time 6 h
[5] = E. coli NCM3722 delta-smpB, growth: N-lim chemostat, doubling time 6 h
[6] = wild type E. coli NCM3722, growth: C-lim chemostat, doubling time 3 h
[7] = wild type E. coli NCM3722, growth: C-lim chemostat, doubling time 6 h
[8] = wild type E. coli NCM3722, growth: C-lim chemostat, doubling time 12 h
[9] = wild type E. coli NCM3722, growth: N-lim chemostat, doubling time 6 h
[10] = wild type E. coli NCM3722, growth: N-lim chemostat, doubling time 12 h
[11] = wild type E. coli NCM3722, growth: P-lim chemostat, doubling time 6 h
[12] = wild type E. coli NCM3722, growth: P-lim chemostat, doubling time 12 h

Sequence | total protein half-life in vivo [1] [h] | total protein half-life in vivo [2] [h] | total protein half-life in vivo [3] [h] | total protein half-life in vivo [4] [h] | total protein half-life in vivo [5] [h] | total protein half-life in vivo [6] [h] | total protein half-life in vivo [7] [h] | total protein half-life in vivo [8] [h] | total protein half-life in vivo [9] [h] | total protein half-life in vivo [10] [h] | total protein half-life in vivo [11] [h] | total protein half-life in vivo [12] [h]
MSKSLQKPTILNVETVARSRLFTVESVDLEFSNGVRRVYERMRPTNREAVMIVPIVDDHLILIREYAVGTESYELGFSKGLIDPGESVYEAANRELKEEVGFGANDLTFLKKLSMAPSYFSSKMNIVVAQDLYPESLEGDEPEPLPQVRWPLAHMMDLLEDPDFNEARNVSALFLVREWLKGQGRV | 4.86 ± 0.33 | 4.8 ± 1.8 | 3.56 ± 0.2 | 4.58 ± 0.89 | 3.4 ± 0.13 | 3.39 ± 0.13 | 5.24 ± 0.67 | 9.26 ± 1.9 | 3.9 ± 0.67 | 5.391 ± 0.048 | 5.95 ± 0.12 | 11.5 ± 1
MSKSRLTVFSFVRRFLLRLMVVLAVFWGGGIALFSVAPVPFSAVMVERQVSAWLHGNFRYVAHSDWVSMDQISPWMGLAVIAAEDQKFPEHWGFDVASIEKALAHNERNENRIRGASTISQQTAKNLFLWDGRSWVRKGLEAGLTLGIETVWSKKRILTVYLNIAEFGDGVFGVEAAAQRYFHKPASKLTRSEAALLAAVLPNPLRFKVSSPSGYVRSRQAWILRQMYQLGGEPFMQQHQLD | 7.03 | 6.44 ± 0.48 | 6.04 ± 0.026 | – | 5.87 ± 0.34 | 3.16 | – | 10.8 ± 1.2 | 6.11 ± 0.23 | 12.3 ± 1.5 | 6.23 ± 0.25 | 12.8 ± 0.19
MSKTFARSSLCALSMTIMTAHAAEPPTNLDKPEGRLDIIAWPGYIERGQTDKQYDWVTQFEKETGCAVNVKTAATSDEMVSLMTKGGYDLVTASGDASLRLIMGKRVQPINTALIPNWKTLDPRVVKGDWFNVGGKVYGTPYQWGPNLLMYNTKTFPTPPDSWQVVFVEQNLPDGKSNKGRVQAYDGPIYIADAALFVKATQPQLGISDPYQLTEEQYQAVLKVLRAQHSLIHRYWHDTTVQMSDFKNEGVVASSAWPYQANALKAEGQPVATVFPKEGVTGWADTTMLHSEAKHPVCAYKWMNWSLTPKVQGDVAAWFGSLPVVPEGCKASPLLGEKGCETNGFNYFDKIAFWKTPIAEGGKFVPYSRWTQDYIAIMGGR | 5.24 ± 0.43 | 5.67 ± 0.8 | 7.1 ± 0.7 | 7.128 ± 0.054 | 5.71 ± 0.53 | 3.27 ± 0.29 | 7.18 ± 0.46 | 13.3 ± 0.99 | 6.37 ± 0.074 | 14.3 ± 0.99 | 6.9 ± 1 | 13.8 ± 0.29
MSKTHLTEQKFSDFALHPKVVEALEKKGFHNCTPIQALALPLTLAGRDVAGQAQTGTGKTMAFLTSTFHYLLSHPAIADRKVNQPRALIMAPTRELAVQIHADAEPLAEATGLKLGLAYGGDGYDKQLKVLESGVDILIGTTGRLIDYAKQNHINLGAIQVVVLDEADRMYDLGFIKDIRWLFRRMPPANQRLNMLFSATLSYRVRELAFEQMNNAEYIEVEPEQKTGHRIKEELFYPSNEEKMRLLQTLIEEEWPDRAIIFANTKHRCEEIWGHLAADGHRVGLLTGDVAQKKRLRILDEFTRGDLDILVATDVAARGLHIPAVTHVFNYDLPDDCEDYVHRIGRTGRAGASGHSISLACEEYALNLPAIETYIGHSIPVSKYNPDALMTDLPKPLRLTRPRTGNGPRRTGAPRNRRRSG [P0A8J8] | 6.02 ± 0.1 | 5.9 ± 0.37 | 5.52 ± 0.76 | 5.16 ± 0.18 | 4.94 ± 0.49 | 3.18 ± 0.11 | 5.73 ± 0.11 | 9.86 ± 0.77 | 4.71 ± 0.18 | 7.89 ± 0.44 | 5.06 ± 0.39 | 9.85 ± 0.23
MSKVCIIAWVYGRVQGVGFRYTTQYEAKRLGLTGYAKNLDDGSVEVVACGEEGQVEKLMQWLKSGGPRSARVERVLSEPHHPSGELTDFRIR [P0AB65] | 6.07 ± 0.29 | 5.82 ± 0.093 | 5.59 ± 0.28 | 5.89 ± 0.12 | 5.9 ± 0.89 | 3.38 ± 0.23 | 5.96 ± 0.08 | 8.66 | 5.32 ± 0.17 | 9.77 ± 1.8 | – | –
MSKVKSITRESWILSTFPEWGSWLNEEIEQEQVAPGTFAMWWLGCTGIWLKSEGGTNVCVDFWCGTGKQSHGNPLMKQGHQMQRMAGVKKLQPNLRTTPFVLDPFAIRQIDAVLATHDHNDHIDVNVAAAVMQNCADDVPFIGPKTCVDLWIGWGVPKERCIVVKPGDVVKVKDIEIHALDAFDRTALITLPADQKAAGVLPDGMDDRAVNYLFKTPGGSLYHSGDSHYSNYYAKHGNEHQIDVALGSYGENPRGITDKMTSADMLRMGEALNAKVVIPFHHDIWSNFQADPQEIRVLWEMKKDRLKYGFKPFIWQVGGKFTWPLDKDNFEYHYPRGFDDCFTIEPDLPFKSFL | 5.04 ± 0.82 | – | – | – | – | 3.56 | – | 11.2 | – | – | 3.67 ± 0.66 | 9.39
MSKVRLAIIGNGMVGHRFIEDLLDKSDAANFDITVFCEEPRIAYDRVHLSSYFSHHTAEELSLVREGFYEKHGIKVLVGERAITINRQEKVIHSSAGRTVFYDKLIMATGSYPWIPPIKGSDTQDCFVYRTIEDLNAIESCARRSKRGAVVGGGLLGLEAAGALKNLGIETHVIEFAPMLMAEQLDQMGGEQLRRKIESMGVRVHTSKNTLEIVQEGVEARKTMRFADGSELEVDFIVFSTGIRPRDKLATQCGLDVAPRGGIVINDSCQTSDPDIYAIGECASWNNRVFGLVAPGYKMAQVAVDHILGSENAFEGADLSAKLKLLGVDVGGIGDAHGRTPGARSYVYLDESKEIYKRLIVSEDNKTLLGAVLVGDTSDYGNLLQLVLNAIELPENPDSLILPAHSGSGKPSIGVDKLPDSAQICSCFDVTKGDLIAAINKGCHTVAALKAETKAGTGCGGCIPLVTQVLNAELAKQGIEVNNNLCEHFAYSRQELFHLIRVEGIKTFEELLAKHGKGYGCEVCKPTVGSLLASCWNEYILKPEHTPLQDSNDNFLANIQKDGTYSVIPRSPGGEITPEGLMAVGRIAREFNLYTKITGSQRLAMFGAQKDDLPEIWRQLIEAGFETGHAYAKALRMAKTCVGSTWCRYGVGDSVGLGVELENRYKGIRTPHKMKFGVSGCTRECSEAQGKDVGIIATEKGWNLYVCGNGGMKPRHADLLAADIDRETLIKYLDRFMMFYIRTADKLTRTAPWLENLEGGIDYLKAVIIDDKLGLNAHLEEEMARLREAVLCEWTETVNTPSAQTRFKHFINSDKRDPNVQMVPEREQHRPATPYERIPVTLVEDNA | 6.11 | 5.71 | – | – | – | – | – | – | – | 6.72 | – | –
MSLAGKKIVLGVSGGIAAYKTPELVRRLRDRGADVRVAMTEAAKAFITPLSLQAVSGYPVSDSLLDPAAEAAMGHIELGKWADLVILAPATADLIARVAAGMANDLVSTICLATPAPVAVLPAMNQQMYRAAATQHNLEVLASRGLLIWGPDSGSQACGDIGPGRMLDPLTIVDMAVAHFSPVNDLKHLNIMITAGPTREPLDPVRYISNHSSGKMGFAIAAAAARRGANVTLVSGPVSLPTPPFVKRVDVMTALEMEAAVNASVQQQNIFIGCAAVADYRAATVAPEKIKKQATQGDELTIKMVKNPDIVAGVAALKDHRPYVVGFAAETNNVEEYARQKRIRKNLDLICANDVSQPTQGFNSDNNALHLFWQDGDKVLPLERKELLGQLLLDEIVTRYDEKNRR [P0ABQ0] | 6.25 ± 0.61 | 6.16 ± 0.64 | 5.48 ± 0.55 | 5.48 ± 0.67 | 4.75 ± 0.079 | 3.15 ± 0.096 | 5.63 ± 0.26 | 12.5 ± 3.3 | 4.7 ± 0.6 | 8.72 ± 0.93 | 6.17 ± 0.24 | 11.8 ± 0.15
